Source: US20150203575A1 (Genentech, published 2015)

B1: hNPDC1-Fc (Fc fusion)
chain: GHPDVAACPGSLDCALKRRARCPPGAHACGPCLQPFQEDQQGLCVPRMRRPPGGGRPQPRLEDEIDFLAQELARKESGQSTPPLPKDRQRLPEPATLGFSARGQGLELGLPSTPGTPTPTPHTSLGSPVSSDPVHMSPLEPRGGQGD
modifications: sialylated O-glycans
notes: Whole entry named; also called human NPDC1-Fc; hNPDC1 (SPR analyte); not shown: Fc
B2: hNPDC1-His (ligand, not shown: small tags and cut ends)
chain: B1 chain
modifications: Sialylated O-glycans, which the patent says are needed for PILRα binding, cannot be carried by the letters
notes: also called hNPDC1-His (WT); hNPDC1-His (mut) (labels name the immobilised hPILRα form)
B3: mPILRαR133A expressed on 293T cells (receptor)
chain: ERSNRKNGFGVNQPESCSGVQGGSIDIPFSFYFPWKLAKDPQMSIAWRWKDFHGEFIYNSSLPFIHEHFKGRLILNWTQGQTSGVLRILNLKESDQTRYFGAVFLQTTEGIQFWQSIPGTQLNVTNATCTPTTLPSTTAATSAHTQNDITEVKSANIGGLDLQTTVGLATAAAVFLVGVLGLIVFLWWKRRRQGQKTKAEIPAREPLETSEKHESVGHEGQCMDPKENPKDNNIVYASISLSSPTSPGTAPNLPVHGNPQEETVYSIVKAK
notes: also called mouse PILRα133A; mPILRαR133A transfectants
B4: human CD99 expressed on 293T cells (ligand, UniProt P14209 23-185, looked up)
chain: DGGFDLSDALPDNENKKPTAIPKKPSAGDDFDLGDAVVDGENDDPRPPNPPKPMPNPNPNHPSSSGSFSDADLADGVSGGEGKGGSDGGGSHRKEGEEADAPGVIPGIVGAVVVAVAGAISSFIAYQKKKLCFKENAEQGEVDMESHRNANAEPAVQRTLLEK
notes: whole, on cells; also called hCD99; hCD99 transfectants
B5: mouse CD99 expressed on 293T cells (ligand, UniProt Q8VCN6 29-175, looked up)
chain: DDFNLGDALEDPNMKPTPKAPTPKKPSGGFDLEDALPGGGGGGAGEKPGNRPQPDPKPPRPHGDSGGISDSDLADAAGQGGGGAGRRGSGDEGGHGGAGGAEPEGTPQGLVPGVVAAVVAAVAGAVSSFVAYQRRRLCFREGGSAPV
modifications: sialylated O-glycans at Thr-45 and Thr-50 (cited as relevant for PILRα recognition)
notes: whole, on cells; also called mCD99; mCD99 transfectants
B6: mCD99-Fc (Fc fusion, mouse, UniProt Q8VCN6 29-137, looked up)
chain: DDFNLGDALEDPNMKPTPKAPTPKKPSGGFDLEDALPGGGGGGAGEKPGNRPQPDPKPPRPHGDSGGISDSDLADAAGQGGGGAGRRGSGDEGGHGGAGGAEPEGTPQG
modifications: three O-glycans NeuAc1-2Hex1HexNAc1
notes: also called mouse CD99-Fc; mCD99 (SPR analyte); not shown: Fc
B7: hPILRαR126A expressed on 293T cells (receptor)
chain: QPSGSTGSGPSYLYGVTQPKHLSASMGGSVEIPFSFYYPWELATAPDVRISWRRGHFHRQSFYSTRPPSIHKDYVNRLFLNWTEGQKSGFLRISNLQKQDQSVYFCAVELDTRSSGRQQWQSIEGTKLSITQAVTTTTQRPSSMTTTWRLSSTTTTTGLRVTQGKRRSDSWHISLETAVGVAVAVTVLGIMILGLICLLRWRRRKGQQRTKATTPAREPFQNTEEPYENIRNEGQNTDPKLNPKDDGIVYASLALSSSTSPRAPPSHRPLKSPQNETLYSVLKA
notes: also called human PILRαR126A; hPILRαR126A transfectants

Experiments:
[1] = molecular target: B3; experiment: flow cytometry, transfected 293T cells, PILRα-positive cells gated
[2] = molecular target: B7; experiment: as above
hPILRαR126A-Fc = molecular target: T1, hPILRαR126A-Fc (human; mouse, UniProt Q9UKJ1 20-197); experiment: SPR, hPILRα R126A-Fc immobilized, response difference
T1 construct: Arg mutant of hPILRα-Fc; also called hPILRα R126-Fc; mutant hPILRα; not shown: Fc of mouse IgG2a (PILRα-mIgG2a, called PILRα-Fc)

hCOLEC12-his = molecular target: T2, hCOLEC12-his (human, UniProt Q5KU26 59-742, sialylated O-glycans and N-glycans); experiment: flow cytometry, transfected 293T cells, PILRα-positive cells gated
T2 construct: Whole entry named; also called human COLEC12-his; hCOLEC12 (SPR); not shown: his tag

mPILRα-Fc = molecular target: T3, mPILRα-Fc (mouse, UniProt Q2YFS3 32-198); experiment: flow cytometry, transfected 293T cells
T3 construct: also called mouse PILRα-Fc; WT mPILRα-Fc; not shown: Fc of mouse IgG2a (PILRα-mIgG2a, called PILRα-Fc)

hPILRα-Fc = molecular target: T4, hPILRα-Fc (human; mouse, UniProt Q9UKJ1 20-197); experiment: flow cytometry, transfected 293T cells
T4 construct: also called human PILRα-Fc; WT hPILRα-Fc; not shown: Fc of mouse IgG2a (PILRα-mIgG2a, called PILRα-Fc)

T2 sequence (Q5KU26 59-742 S522P/G606S limits assumed): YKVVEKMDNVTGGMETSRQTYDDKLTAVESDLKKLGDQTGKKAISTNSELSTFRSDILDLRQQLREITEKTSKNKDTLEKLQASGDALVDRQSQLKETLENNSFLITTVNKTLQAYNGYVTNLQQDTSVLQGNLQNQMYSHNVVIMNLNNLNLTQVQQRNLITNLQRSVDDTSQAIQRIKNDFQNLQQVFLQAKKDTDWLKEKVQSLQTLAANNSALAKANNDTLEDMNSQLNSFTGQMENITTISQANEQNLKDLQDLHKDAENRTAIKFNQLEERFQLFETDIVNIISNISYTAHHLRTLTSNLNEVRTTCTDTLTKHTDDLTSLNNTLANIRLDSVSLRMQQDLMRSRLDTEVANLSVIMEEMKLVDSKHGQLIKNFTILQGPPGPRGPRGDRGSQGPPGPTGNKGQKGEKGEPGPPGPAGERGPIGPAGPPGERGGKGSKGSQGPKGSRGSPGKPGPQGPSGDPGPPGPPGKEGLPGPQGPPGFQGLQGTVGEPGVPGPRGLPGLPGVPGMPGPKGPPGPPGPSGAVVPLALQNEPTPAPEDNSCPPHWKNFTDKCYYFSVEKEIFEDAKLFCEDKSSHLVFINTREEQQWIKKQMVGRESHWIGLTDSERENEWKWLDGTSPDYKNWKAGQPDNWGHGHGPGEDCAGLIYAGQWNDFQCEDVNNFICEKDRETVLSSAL
T3 sequence (Q2YFS3 32-198): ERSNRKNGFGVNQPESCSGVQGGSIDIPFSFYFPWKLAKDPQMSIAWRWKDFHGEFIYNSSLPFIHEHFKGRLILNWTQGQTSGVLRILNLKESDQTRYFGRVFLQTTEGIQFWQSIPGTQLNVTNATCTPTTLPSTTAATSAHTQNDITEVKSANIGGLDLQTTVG

Does B1 bind [1]?
Result: no binding

Does B1 bind [2]?
Result: no binding

Does B2 bind (hPILRαR126A-Fc)?
Result: no binding (tested: 1 µM)

Does B3 bind (hCOLEC12-his)?
Result: no binding

Does B4 bind (mPILRα-Fc)?
Result: no binding

Does B4 bind (hPILRα-Fc)?
Result: no binding

Does B5 bind (mPILRα-Fc)?
Result: binds

Does B5 bind (hPILRα-Fc)?
Result: binds

Does B6 bind [1]?
Result: no binding

Does B6 bind [2]?
Result: no binding

Does B7 bind (hCOLEC12-his)?
Result: no binding
